The record followed here is US9284543B2, “Neutral active soluble truncated PH20 polypeptides and uses thereof” (Halozyme, Inc., priority 2008, dated 2016).

Common to all, as to type: biochemical
Test [1] in a line: Hyaluronidase activity of N-glycan site specific deglycosylation mutants (biotinylated-HA assay). Conditions: media of transfected CHO-S cells. The method, then: (§1) In short, a 4×BH 96-well plate was coated with biotinylated-HA (1.1 MDa). The 72 hour post transfection supernatant from cells transfected with human PH20 hyaluronidase carboxy-terminus deletion mutants was diluted in buffer at either pH 7.4 or pH 5.5 and added to individual wells of the plate and allowed to incubate at 37° C. for 90 minutes. The reaction was terminated by addition of 4M guanidine HCl. The wells were washed 4× with Phosphate Buffered Saline with Tween20 (PBST) to remove any digested biotinylated-HA followed by addition of streptavidin-HRP for 1 hour at room temperature. The wells were washed 4× with PBST and the plate was developed with TMB. The plate was read at 450 nm using an ELISA plate reader. Hyaluronidase activity (in Units/mL) was determined by interpolating the measured absorbance at 450 nm with a hyaluronidase reference standard curve. Full length mature human PH20 hyaluronidase and untransfected CHO cells were used as positive and negative controls.
PH20sHis (SEQ ID NO:210) was used as a template for mutagenesis of each asparagine residue to alanine using QuikChange® Site-Directed Mutagenesis Kit (Cat No. 200518, Stratagene). […] Six single mutants were generated, one for each of the N-glycosylation sites. Additionally, three double mutants and a triple mutant were generated for asparagines N82, N166 and N254, all of which are occupied by complex type glycans. Finally, a double mutant N368A/N393A was generated, lacking high mannose glycans. The mutants were transfected into CHO—S cells and expression was performed as described in Example 2A. Secretion into the media and hyaluronidase activity were determined as described in Examples 3 and 5, above.

Test [2] can be described thus: bHA enzymatic assay of PH20 transiently expressed in lectin resistant CHO mutants. Conditions: pH5.5; for PH20 Activity (1:27): 1:27 dilution; for PH20 Activity (1:81): 1:81 dilution. As for the experimental part:
as §1
The resulting cell culture media was analyzed by Western blot analysis and hyaluronidase activity was measured using the biotinylated HA enzymatic assay (as described in Examples 3 and 5 above).

A short description of test [3]: Effect of glycosidase treatment on rHuPH20 hyaluronidase activity. More on the design: unit not given here. The method, then: as §1
Human PH20 hyaluronidase is glycosylated at six different asparagine residues, including N82, N166, N235, N254, N368, and N393. Five glycosidases were used to generate deglycosylated human PH20 hyaluronidase, including: PNGaseF (New England Biolabs, Cat. No. P0704S, Lot #34), which cleaves all N-glycans; EndoF1, which cleaves high mannose and hybrid type glycans; EndoF2, which cleaves biantennary complex type glycans; EndoF3, which cleaves biantennary and more branched complex glycans; and EndoH (New England Biolabs, Cat. No. P0702S), which cleaves high mannose and hybrid type glycans. Therefore, treatment with PNGaseF results in complete deglycosylation whereas treatment with endoglycosidases results in only partial deglycosylation.
For complete deglycosylation, purified rHuPH20 (0.1 mg/mL final concentration) was incubated with PNGaseF (50,000 units/mL) in 50 mM phosphate buffer pH 7.2 overnight at 37° C. For partial deglycosylation, purified rHuPH20 (0.5 mg/mL final concentration) was incubated with 0.3 units/mL of endoglycosidase (either EndoF1, EndoF2, EndoF3 or EndoH) or a mixture all four endoglycosidases in 50 mM sodium acetate buffer pH 5.0 overnight at 35° C. Deglycosylation of rHuPH20 was analyzed by the shift in the mobility of PH20 by SDS-PAGE. Hyaluronidase enzymatic activity was determined as described in Example 5.

B1: HZ24-PH20sHis: his-tagged PH20 (SEQ ID NO:187), human PH20 clone with HexaHis tag after amino acid S490 (protein)
chain: MGVLKFKHIFFRSFVKSSGVSQIVFTFLLIPCCLTLNFRAPPVIPNVPFLWAWNAPSEFCLGKFDEPLDMSLFSFIGSPRINATGQGVTIFYVDRLGYYPYIDSITGVTVNGGIPQKISLQDHLDKAKKDITFYMPVDNLGMAVIDWEEWRPTWARNWKPKDVYKNRSIELVQQQNVQLSLTEATEKAKQEFEKAGKDFLVETIKLGKLLRPNHLWGYYLFPDCYNHHYKKPGYNGSCFNVEIKRNDDLSWLWNESTALYPSIYLNTQQSPVAATLYVRNRVREAIRVSKIPDAKSPLPVFAYTRIVFTDQVLKFLSQDELVYTFGETVALGASGIVIWGTLSIMRSMKSCLLLDNYMETILNPYIINVTLAAKMCSQVLCQEQGVCIRKNWNSSDYLHLNPDNFAIQLEKGGKFTVRGKPTLEDLEQFSEKFYCSCYSTLSCKEKADVKDTDAVDVCIADGVCIDAFLKPPMETEEPQIFYNASPSTLSHHHHHH
modifications: His6 tag; PH20sHis
With B1, the “Activity pH 5.5” value in test [1] (pH 5.5) was “YES”. The “Activity pH 7.4” value in test [1] (pH 7.4) is “YES”. Also, the “PH20 Activity (1:27)” value in test [2] (expressed in Lec1 cells) turned out to be 0.54 U/mL; in test [2] (expressed in Lec2 cells), 0.675 U/mL; in test [2] (expressed in Lec8 cells), 0.2565 U/mL; in test [2] (expressed in Pro-5 cells), 0.297 U/mL. Besides, the “PH20 Activity (1:81)” value in test [2] (expressed in Lec1 cells) was determined as 0.7695 U/mL; in test [2] (expressed in Lec2 cells), 1.053 U/mL; in test [2] (expressed in Lec8 cells), 0.567 U/mL; in test [2] (expressed in Pro-5 cells), 0.6075 U/mL.

B2: PNGaseF: purified rHuPH20 incubated with PNGaseF (complete deglycosylation) (protein, listed as Homo sapiens)
chain: LNFRAPPVIPNVPFLWAWNAPSEFCLGKFDEPLDMSLFSFIGSPRINATGQGVTIFYVDRLGYYPYIDSITGVTVNGGIPQKISLQDHLDKAKKDITFYMPVDNLGMAVIDWEEWRPTWARNWKPKDVYKNRSIELVQQQNVQLSLTEATEKAKQEFEKAGKDFLVETIKLGKLLRPNHLWGYYLFPDCYNHHYKKPGYNGSCFNVEIKRNDDLSWLWNESTALYPSIYLNTQQSPVAATLYVRNRVREAIRVSKIPDAKSPLPVFAYTRIVFTDQVLKFLSQDELVYTFGETVALGASGIVIWGTLSIMRSMKSCLLLDNYMETILNPYIINVTLAAKMCSQVLCQEQGVCIRKNWNSSDYLHLNPDNFAIQLEKGGKFTVRGKPTLEDLEQFSEKFYCSCYSTLSCKEKADVKDTDAVDVCIADGVCIDAFLKPPMETEEPQIFY
modifications: N-glycans removed by PNGaseF; soluble rHuPH20 36-482
On to B2, for which the “rHuPH20 activity after glycosidase treatment (assay readout)” value is 1.9172 in test [3] (rHuPH20 0.0080 U/ml), 1.9926 in test [3] (rHuPH20 0.0400 U/ml), 1.9173 in test [3] (rHuPH20 0.2000 U/ml) and 1.9315 in test [3] (rHuPH20 1.0000 U/ml).
